{"source": "paper PMC9062193", "binders": {"B1": {"name": "YFL-4 (Lac-A1, Lac1-4), truncated (ssDNA)", "DNA": "GCAGGACACCGTAACACGGGCTGATGCTCTCTTTATTTTACCTAAATAAAGTGTCCTGC"}, "B2": {"name": "YFL-5 (Lac-A3, Lac8-2), truncated (ssDNA)", "DNA": "CAGGCAGGACACCGTAACCGGGCATTTGCTCTCAATTTAGTCTCAAATTGTGGCCTGCCTG"}, "B3": {"name": "YFL-1 (Lac-6a), truncated (ssDNA)", "DNA": "AGGCAGGACACCGTAACCGGTGCATCTATGGCTACTAGCTTTTCCTGCCT"}, "B4": {"name": "YFL-6 (Lac-A4), truncated (ssDNA)", "DNA": "B3 DNA with T41C"}, "B5": {"name": "YFL-7 (Lac-A6), truncated (ssDNA)", "DNA": "GCAGGACACCGTAACGGGTGCACACTCTTATTTTTACACGAGCCAAAAATATGTCCTGC"}}, "note": "Where a chain is given by its changes, count along the chain named."}
{"biological_target": "lactoferrin (Lac) (bovine? (\"from bovine milk\"), UniProt P24627 20-708)", "sequence (P24627 20-708)": "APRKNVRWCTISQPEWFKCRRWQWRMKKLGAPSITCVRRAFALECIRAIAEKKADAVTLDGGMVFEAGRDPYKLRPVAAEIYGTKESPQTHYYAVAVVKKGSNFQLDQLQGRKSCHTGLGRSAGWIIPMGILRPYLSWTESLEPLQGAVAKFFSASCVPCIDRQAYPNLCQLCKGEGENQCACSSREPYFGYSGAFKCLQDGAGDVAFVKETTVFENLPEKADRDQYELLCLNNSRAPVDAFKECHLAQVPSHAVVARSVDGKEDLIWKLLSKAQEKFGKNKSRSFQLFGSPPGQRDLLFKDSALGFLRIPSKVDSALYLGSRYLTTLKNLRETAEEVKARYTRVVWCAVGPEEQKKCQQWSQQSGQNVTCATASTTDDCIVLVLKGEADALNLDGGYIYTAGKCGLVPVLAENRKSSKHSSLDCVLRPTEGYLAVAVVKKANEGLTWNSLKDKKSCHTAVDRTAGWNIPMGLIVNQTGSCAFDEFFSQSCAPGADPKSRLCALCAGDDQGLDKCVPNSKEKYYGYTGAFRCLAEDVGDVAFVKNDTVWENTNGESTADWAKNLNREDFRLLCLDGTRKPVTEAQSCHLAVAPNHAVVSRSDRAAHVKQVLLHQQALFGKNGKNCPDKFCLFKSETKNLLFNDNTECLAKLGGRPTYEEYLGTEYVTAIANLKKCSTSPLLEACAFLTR", "assay": "protein microarray", "units": {"binding signal": "fluorescence intensity"}}
{"binder": "B1", "binding signal": 2150}
{"binder": "B2", "binding signal": 2240}
{"binder": "B3", "binding signal": 1780}
{"binder": "B4", "binding signal": 2840}
{"binder": "B5", "binding signal": 2490}
